Drawing on patent US20240124881, this text covers binding signal (fold lower recovery than WT) for 1 substance.

The data set concerns the target T1, DHX36 (Mus musculus) (UniProt Q8VHK9).
T1 sequence: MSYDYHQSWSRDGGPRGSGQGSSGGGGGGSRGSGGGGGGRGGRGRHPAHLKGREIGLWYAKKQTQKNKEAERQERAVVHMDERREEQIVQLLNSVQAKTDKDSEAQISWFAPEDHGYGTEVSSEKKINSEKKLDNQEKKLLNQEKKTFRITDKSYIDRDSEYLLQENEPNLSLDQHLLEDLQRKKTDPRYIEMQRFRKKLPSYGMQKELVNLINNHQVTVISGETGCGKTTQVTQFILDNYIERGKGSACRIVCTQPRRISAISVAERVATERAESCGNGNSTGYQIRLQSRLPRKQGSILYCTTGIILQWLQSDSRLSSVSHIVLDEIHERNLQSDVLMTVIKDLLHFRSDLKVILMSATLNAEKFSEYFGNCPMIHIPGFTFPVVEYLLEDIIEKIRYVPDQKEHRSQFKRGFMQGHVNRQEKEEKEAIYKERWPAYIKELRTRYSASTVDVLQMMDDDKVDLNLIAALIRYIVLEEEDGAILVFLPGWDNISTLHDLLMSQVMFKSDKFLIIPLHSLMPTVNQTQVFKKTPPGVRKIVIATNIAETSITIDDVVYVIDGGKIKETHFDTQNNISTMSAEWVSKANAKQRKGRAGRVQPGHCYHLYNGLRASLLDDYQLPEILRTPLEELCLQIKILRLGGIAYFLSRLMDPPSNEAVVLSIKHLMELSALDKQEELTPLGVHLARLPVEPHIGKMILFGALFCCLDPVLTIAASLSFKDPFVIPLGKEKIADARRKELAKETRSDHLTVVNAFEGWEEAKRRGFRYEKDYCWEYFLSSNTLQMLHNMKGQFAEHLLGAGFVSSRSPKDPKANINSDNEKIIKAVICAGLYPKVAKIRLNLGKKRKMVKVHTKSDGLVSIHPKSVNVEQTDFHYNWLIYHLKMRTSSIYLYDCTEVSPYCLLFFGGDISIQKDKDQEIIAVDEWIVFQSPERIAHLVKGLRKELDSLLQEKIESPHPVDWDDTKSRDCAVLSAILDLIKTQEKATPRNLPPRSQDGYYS
The experiment in a line: pulldown. To be noted: N2a lysate, mass spectrometry; threshold criterion.

For Chaserr Exon5-MC, the binding signal (fold lower recovery than WT) was greater than 2.
